Here are results for 20 molecules from patent US20100004432, “APTAMER AGAINST MIDKINE AND USE THEREOF” (RIBOMIC INC., published 2010).

Substitutions are numbered along the chain they refer to.

Common to all, as to conditions: tags: expressed in yeast
The target of data set [1] is T1, midkine (full-length) (Homo sapiens, UniProt P21741 P21741:23-143).
T1 sequence: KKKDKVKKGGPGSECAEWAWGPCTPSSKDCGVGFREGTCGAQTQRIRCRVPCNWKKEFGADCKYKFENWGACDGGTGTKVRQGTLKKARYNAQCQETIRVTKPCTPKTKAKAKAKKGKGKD
The experiment in a line: cell_activity; UMR106 migration inhibition, 500 nM RNA. On the procedure: (§1) 30 μL of 1.5 μM midkine was applied to the outer surface of the membrane of Chemotaxicell (membrane pore diameter 8 μm, manufactured by Kurabo) to immobilize the midkine to the outer surface of the membrane. The midkine-immobilized Chemotaxicell was placed on a 24-well culture plate containing 500 μL of a medium (supplemented with 0.3% bovine serum albumin, Dulbecco's Modified Eagle's medium) supplemented with each RNA aptamer added thereto at 100 nM. 200 μL of UMR106 cells were placed in the inner layer of the Chemotaxicell chamber at a density of 1×10⁶ cells/mL, and cultured at 37° C. for 4 hours. The cells remaining in the inner layer of the Chemotaxicell chamber were removed, and the cells that had infiltrated and adhered to the midkine-applied surface were fixed with methanol. The Chemotaxicell chamber was immersed in a 1% aqueous solution of Crystal Violet for 30 minutes to stain the cells. After the Chemotaxicell chamber was washed with distilled water and dried, the pigment was extracted with a mixed solution of 200 μL of 1% SDS and 1% triton X100. 150 μL of the extract was transferred to a 96-well microplate, and its absorbance at 590 nm was determined.
(§2) The aptamer shown by SEQ ID NO:5 is 77 nucleotides long, having the 2′-position of the ribose of the pyrimidine nucleotide fluoro-substituted. To enable the chemical synthesis, to reduce the toxicity, and to improve the stability in the blood, miniaturization and stabilization of this aptamer were performed. The operations of miniaturization and stabilization were performed on the basis of the secondary structure estimated by the MFOLD program, and the activity was evaluated by a cell migration inhibition experiment. The RNA concentration in the cell migration inhibition experiment was 100 nM or 500 nM. Since some errors occur in experimental results depending on cell condition, a previously assayed sample was included as a positive control in each measurement.

Data set [2] addresses T1, midkine (full-length). The data set is described as follows: cell_activity; 100 nM RNA. On the procedure: as §1, §2
In data set [3] the target is T1, midkine (full-length). The experiment in a line: cell_activity; 500 nM RNA. On the procedure:
as §1, with “Chem. 276 (19), 15868-15875, 2001). […] 30 μL” for “30 μL”
as §2, with “SEQ ID NO:4 is 77” for “SEQ ID NO:5 is 77”, “having the 2′ position of the” for “having the 2′-position of the”, “pyrimidine nucleotide thereof fluoro-substituted. To” for “pyrimidine nucleotide fluoro-substituted. To”, “inhibition experiment. In the cell” for “inhibition experiment. The RNA concentration in the cell”, “migration inhibition experiment, the RNA concentration was 100” for “migration inhibition experiment was 100”

As for GGGAAGGAGGAAGUGCACAGGGGUUGGUGUCGGGUGCAC (ssRNA, as 61-4 plus 2'-OMe: c(F)g(M)g(M)gu(F) near 3' end) [SEQ ID NO:61-7], the activity in the data set with midkine (full-length) [1] was 46 % of SEQ ID NO:40.

B1: SEQ ID NO:35 (ssRNA)
RNA: GGGAGAGGAGAAGAGGAAGUGUGCACAGGGGUUGGUGUCGGGUGCAUACAG
modifications: 2'-F pyrimidines
Regarding B1, the activity in the data set with midkine (full-length) [2] is 90 % of SEQ 5 inhibition. As to GGCGAGGAGUAGCCGGAAAGAAGGCGGCGCC (ssRNA, 2'-F pyrimidines) [SEQ ID NO:28], the activity with midkine (full-length) [3] is 71 % of SEQ 4 inhibition.

On to GACGAGGAGUAGCCGGAAAGAAGGCGGCGUC (ssRNA, 2'-F pyrimidines) [SEQ ID NO:29], for which the activity with midkine (full-length) [3] is 74 % of SEQ 4 inhibition.

B2: SEQ ID NO:41 (ssRNA)
RNA: GGGAAGGAGAAGAGGAAGUGCACAGGGGUUGGUGUCGGGUGCACAGUAUAAG
modifications: 2'-F pyrimidines
As for B2, the activity with midkine (full-length) [2] was 97 % of SEQ 5 inhibition.

B3: SEQ ID NO:42 (ssRNA)
RNA: B2 RNA with A5G, G6A, A8G, G9A, A10G
modifications: 2'-F pyrimidines
For the molecule B3, in the data set with midkine (full-length) [2], the activity was 110 % of SEQ 5 inhibition.

As to GGGAGAGGAACGACGAGAACAGCCGGAAAGAAGGCGGCGUC (ssRNA, 2'-F pyrimidines) [SEQ ID NO:25], the activity with midkine (full-length) [3] was 81 % of SEQ 4 inhibition. On to GGGAGAGGAACGACGAGGGUAGCCGGAAAGAAGGCGGCGUC (ssRNA, 2'-F pyrimidines) [SEQ ID NO:27], for which the activity with midkine (full-length) [3] was 78 % of SEQ 4 inhibition. On the same count and under the same terms, next, GGGAGAGGAACGACGAGAGUAGCCGGAAAGAAGGCGGCGUC (ssRNA, 2'-F pyrimidines) [SEQ ID NO:26]: 18 % of SEQ 4 inhibition; GGGACGAGGAGUAGCCGGAAAGAAGGCGGCGUC (ssRNA, 2'-F pyrimidines) [SEQ ID NO:22]: 70 % of SEQ 4 inhibition.

B4: SEQ ID NO:33 (ssRNA)
RNA: GGAGAAGAGGAAGUGUGCACAGGGGUUGGUGUCGGGUGCAUACAGUAUAAGAUAGAGGACA
modifications: 2'-F pyrimidines
B4: in the data set with midkine (full-length) [2], the activity was 40 % of SEQ 5 inhibition.

B5: SEQ ID NO:30 (ssRNA)
RNA: GGAGAAGAGGAAGUGUGCACAGGGGUUGGUGUCGGGUGCAUACAGUAUAAGAUAGAGGACAGGAAUGAGGA
modifications: 2'-F pyrimidines
B5: the activity with midkine (full-length) [2] is 44 % of SEQ 5 inhibition.

Consider GGGAGAGGAACGUACGAGGAGUAGCCGGAAAGAAGGCGGCGUAC (ssRNA, 2'-F pyrimidines) [SEQ ID NO:19], for which, in the data set with midkine (full-length) [3], the activity was 94 % of SEQ 4 inhibition.

B6: SEQ ID NO:32 (ssRNA)
RNA: GGGAGAGGAGAAGAGGAAGUGUGCACAGGGGUUGGUGUCGGGUGCAUACAGUAUAAG
modifications: 2'-F pyrimidines
On to B6, for which the activity in the data set with midkine (full-length) [2] was 100 % of SEQ 5 inhibition.

B7: SEQ ID NO:36 (ssRNA)
RNA: GGGAGAGGAGAAGAGGAAGUGCACAGGGGUUGGUGUCGGGUGCACAGUAUAAG
modifications: 2'-F pyrimidines
Turning to B7, in the data set with midkine (full-length) [2], the activity was 91 % of SEQ 5 inhibition.

B8: SEQ ID NO:36-1 (ssRNA)
RNA: B7 RNA
modifications: 2'-F pyrimidines; 2'-OMe on all of 5' single strand (nt 1-18)
With B8, the activity with midkine (full-length) [2] is 60 % of SEQ 5 inhibition.

B9: SEQ ID NO:43 (ssRNA)
RNA: GGGAGAGGAGAAGAGGAGUGCACAGGGGUUGGUGUCGGGUGCACAGUAUAAG
modifications: 2'-F pyrimidines
With B9, the activity with midkine (full-length) [2] is 42 % of SEQ 5 inhibition.

On to GGGAGAGGAACGACGAGGAGUAGCCGAAAGGCGGCGUC (ssRNA, 2'-F pyrimidines) [SEQ ID NO:23], for which the activity with midkine (full-length) [3] is 66 % of SEQ 4 inhibition. On the same count and under the same terms, then GGGAGAGGAACGACGAGGAGUAGCCUUCGGGCGGCGUC (ssRNA, 2'-F pyrimidines) [SEQ ID NO:24], with 65 % of SEQ 4 inhibition.

B10: SEQ ID NO:31 (ssRNA)
RNA: GGGAGAGGAGAAGAGGAAGUGUGCACAGGGGUUGGUGUCGGGUGCAUACAGUAUAAGAUAGAGGACA
modifications: 2'-F pyrimidines
Regarding B10, the activity with midkine (full-length) [2] was 94 % of SEQ 5 inhibition.
